Assay results reported in US20180222987A1.

B1: 11F9-F8 anti-CD3 antibody (antibody, V domains shown)
VH: EVQLVETGGTLVQPGKSLKLTCATSGFTFSNAWMHWVRQSPEKQLEWVAQIKAKSNNYATYYAESVKGRFTISRDDSKTSVYLQLNSLREEDTAIYYCRGTQYGYNPFDYWGQGVMVTVSS
VL: DVVLTQTPVSLSVSLGGQVSISCRSSQSLVHNNGNTYLSWSLQKPGQSPQVLIYKVSNRFSGISNRFSGSGSGTDFTLKISRVEPDDLGVYYCGQGAHYPFTFGSGTKLEIK
B2: 4B4-D7 anti-CD3 antibody (antibody, V domains shown)
VH: EVQLVETGGRLVQPGRSLKLTCATSGFTFSNAWMHWVRQSPEKQLEWVAQIKARSNNYATYYAESVKGRFTISRDDSKSTIYLQMNSLKEEDTAIYYCRGTYYASKPFDYWGQGVMVTVSS
VL: DVVMTQTPVSLSVSLGGQVSISCRSSQSLVHDNGNTYLSWSLQRPGQSPQVLIYKVSNRFSGTSDRFTGSGSGTDFTLKISRVEPDDLGVYYCGQGTQYPFTFGSGTKLEIK
B3: 12G3-E8 anti-CD3 antibody (antibody, V domains shown)
VH: EVRVVETGGSLVQPGKSLKLTCATSGFTFSLAWMHWVRQSPEKKLEWVAQIKDKANNYATYYAESVKGRFTISRDDSKRSVYLQMNRLKEEDTAIYYCRGVYYGFSMTPFDYWGQGVMVTVSS
VL: DVAMTQTPVSLSVSLGGQVSISCRSSQSLVHNNGNTYLSWYLQKPGQSPQVLIYKVSNRFSGISDRFSGSGSGADFTLKISRVEPDDLGVYYCGQGTQYPFTFGAGTKLELK
B4: 11D7-C3 anti-CD3 antibody (antibody, V domains shown)
VH: EVQFVETGGSLVQPGKSLKLTCATSGFTFSNAWMHWVRQSPEKQLEWVAQIKAKSNNYATYYAESVKGRFTISRDDSKSSVYLQMNSLKEEDTATYYCRGLYYGLSPSDYWGQGVMVTVSS
VL: DVVMTQTPVSLSVSLGGQVSISCRSSQSLVHNNGNTYLSWYLQKPGQSPQLLIYKVSNRFSGISDRFSGSGSGTDFTLKISRVEPDDLGVYYCGQGTHYPFTFGSGTKLEIK
B5: 13C1-F6 anti-CD3 antibody (antibody, V domains shown)
VH: EVQLVETGGTLVQPGKSLKLTCATSGFTFSNAWMHWVRQSPEKQLEWVAQIKAKSNNYATYYAESVKGRFTISRDDSKTSVYLQLNSLREEDTAIYYCRGTQYGYNPFDYWGQGVMVTVSS
VL: DVVMTQSPVSLSVSLGGQVSISCRSSQSLVHNNGNTYLSWYLQRSGQSPQLLIYKVSNRLSGISDRFSGSGSGTDFTLKISRIEPDDLGVYYCGQGTQYPFTFGSGTRLEIK
B6: 10F4-C10 anti-CD3 antibody (antibody, V domains shown)
VH: EVQLVETGGSLVQPGKSLKITCATSGFTFSNAWMHWVRQSPEKQLEWVAQIKAKSNNYATYYAESVKGRFTISRDDSKSSIYLQMNSLKEEDTAIYYCRAVNYGNYPLDYWGQGVMVTVSS
VL: DVVMTQTPVSLSVSLGGQVSISCRSSQSLVHNNGNTYLSWCLQKPGQSPQLLIYKVSNRFSGISDRFSGSGSGTDFTLKISRVEPDDLGVYYCGQGTQYPFTFGAGTKLELK
B7: 20E5-F10 anti-CD3 antibody (antibody, V domains shown)
VH: EVQLVETGENLVQPGKSLRLTCATSGFSFSNAWMHWIRQSPEKQLEWVAQIKDKSNNYATYYAESVNGRFTISRDDSKSSIYLHMDNLKEEDSAIYYCRYVHYGVRFFYTMDVWGQGTSVTVSS
VL: DVVMTQTPVSLSVSLGDQVSISCRPSQSLVHNNGNTYLSWYLQKPGQSPHPLIYKVSNRFSGISDRFSGSGSGTDFTLKISRVEPDDLGVYYCGQGTQYPFTFGSGTKLEIK
B8: 5B1-G2 anti-CD3 antibody (antibody, V domains shown)
VH: EVQVVETGGSLVQPGKSLKLTCATSGFSFSNAWMHWVRQSPEKQLEWVAQIKDKANNYATYYAESVKGRFTISRDDSKGSIYLQMNSLKEEDTAVYYCRGLYYGLFPSDYWGQGVMVTVSS
VL: DVVMTQTPVSLSVSLGGQVSISCRSSQSLVHNNGNTYLSWYLLKPGQSPQLLIYKVSNRFSGISDRFSGGGSGTDFTLKISRLEPDDLGIYYCGQGTQYPFTFGSGTKLEIK
B9: 4E7-C9 anti-CD3 antibody (antibody, V domains shown)
VH: EVQVVETGGSLVQPGKSLKLTCATSGFTFSNAWMHWVRQSPEKQLEWVAQIKDKSNNYATYYAESLKGRFTISRDDPKRSIYLQMNSLREEDTAIYYCRYVHYGIGYAMDAWGQGTSVTVSS
VL: DVVMTQTPVSLSVSLGGQVSISCRSSQSLEHNNGNTYLSWYLQKPGQSPQPLIYKVSNRFSGISDRFSGSGSGTDFTLKISRVEPDDLGVYYCGQGTQYPFTFGPGTKLELK
B10: 11F3-B9 anti-CD3 antibody (antibody, V domains shown)
VH: EVQLVETGGSLVQPGKSLTLTCATSGFTFSNAWMHWVRQSPEKQLEWVAQIKAKSNNYATYYAESVKGRFTISRDDSKRSVYLQMNSLKEEDTAIYYCRYVNYGLAPMDVWGQGTSVTVSS
VL: DVVMTQTPVSLSVSLGGQVSISCRSSQSLVHDNGNTYLSWYLQKPGQSPQLLIYKVSNRFSGFSDRFSGSGSGTDFTLKISRVEPDDLGVYYCGQGTQYPFTFGAGTKLELK
B11: 16F8-A7 anti-CD3 antibody (antibody, V domains shown)
VH: VETGGNLVQPGKSLKLTCATSGFTFSNAWMHWVRQSPEKQLEWVAQIKAKSNNYATYYAESVKGRFTISRDDSKSSVYLQMNSLKEEDTAIYYCRYVNYGLAPMDVWGQGTSVTVSS
VL: DVVMTQTPVSLSVSLGGQVSISCRSSQSLVHNNGNTYLSWYLQKPGQSPQLLIYKVSNRFSGFSDRFSGSGSGTDFTLKISRVEPDDLGVYYCGQGTQYPFTFGAGTKLELK
B12: 10E6-G6 anti-CD3 antibody (antibody, V domains shown)
VH: EVQLVETGGGLVQSGKSLKLTCATSGFTVTNAWMHWVRQSPEKQLEWVAQIKAKSNNYETYYAESVKGRFTISRDDSKSSVYLQMNSLKEEDTAIYYCRGTQYGYNPFDYWGQGVMVTVSS
VL: DVVMTQSPVSLSVSLGGQVSISCRSSQSLVHNNGYTYLSWYLQKPGQSPQVFIYKVSNRFSGISDRFSGSGSGTDFTLKISRIEPDDLGVYYCGQGTHYPFTFGSGTKLEIK
B13: 18G9-H11 anti-CD3 antibody (antibody, V domains shown)
VH: EVQLVETGGSLVQPGKSLKLTCATSGFTFSNAWIQWVRQSPEKQLEWVAQIKAKSNNYATYYAESVKGRFTISRDDSKSSVYLQMNSLKEEDTALYYCTWRHYYSSHTMDAWGQGTLVTVSS
VL: DVVMTQTPVSLSVSLGGQVSISCRSSQSLVHNNGNTYLSWYLQKPGQSPQLLIYKVSNRFSGISDRFSGSGSGTDFTLKISRVAPTDLGVYYCGQGSQYPFTFGAGTKLELK
B14: 3H6-D2 anti-CD3 antibody (antibody, V domains shown)
VH: EVQLVETGGRLVQPGKSLKLTCATSGFTFSNAWMHWVRQSPEKQLEWVAQIKDKSNNYATYYAESVKGRFTISRDDSKSIIYLQMNSLKEEDTAIYYCRALTYYGYKRDAMDGWGHGTSVTVSS
VL: DVVMTQTPVSLSVSLGGQVSISCRSSQSLVHNNGNTYLSWYLQKPGQSPQLLIYKVSNRFSGISDRFSGSGSGTDFTLKISRVEPDDLGVYYCGQGTQYPFTFGAGTKLELK
B15: 12D2-E5 anti-CD3 antibody (antibody, V domains shown)
VH: EVKLVESGGGLVQPGRSLRLSCAASGFNFYAYWMGWVRQAPGKGLEWIGEIKKDGTTINYTPSLKDRFTISRDNAQNTLYLQMTKLGSEDTALYYCAREERDGYFDYWGQGVMVTVSS
VL: QFVLTQPNSVSTNLGSTVKLSCKRSTGNIGSNYVNWYQQHEGRSPTTMIYRDDKRPDGVPDRFSGSIDRSSNSALLTINNVQTEDEADYFCQSYSSGIVFGGGTKLTVL
B16: 6C9-C9 anti-CD3 antibody (antibody, V domains shown)
VH: AVQLVESGGGLVRPKESLKISCAASGFTFRNAAMYWVRQAPGKGLEWVARIRTQPNNYAKYYADSVKDRFTISRDDSKSMVYLQMDNLKTEDTAMYYCTGLVVTAMDAWGQGTSVTVSS
VL: DIQMTQSPSFLSASVGDRVTINCKASQNINKYLNWYQQKLGEAPKLLIYVTNNLQTGIPSRFSGSGSGTDYTLTISSLQPEDVATYFCLQHRSMYTFGTGTKLELK
B17: 18H11-F10 anti-CD3 antibody (antibody, V domains shown)
VH: EVQLVESGGGLVQPGRSLKLSCAASGFIFSDYYMAWVRQAPKKGLEWVATISISGSRTYYPDSVKGRFTVSRDNAKSSLYLQMNSLKSEDTATYYCATNNPGGWFVYWGQGTLVTVSS
VL: NIQMTQSPSLLSASVGDRVTLSCKAGQNINNDLAWYQQKLGEAPRLLIYNANSLQTGIPSRFSGSGSGADFTLTISSLQPEDVATYFCQQYSSGDTFGAGTKLELK
B18: 13H2-C3 anti-CD3 antibody (antibody, V domains shown)
VH: EEELVETGGSLVQPGKSLKLTCATSGFTFSNAWMHWVRQSPDKQLEWVAQIKAKSNNYATYYAESVKGRFTISRDDSKSSVYLQMNNLKEEDTAIYYCRYVHYGLAPMDAWGQGTSVTVSS
VL: DVVMTQTPVSLSVSLGGQVSISCRSSQSLVHNNGNTYLSWYLQKAGQSPQLLIYKVSNRFSGISDRFSGSGSGTDFILKISRVEPDDLGVFYCGQGTQYPFTFGAGTKLELK
B19: 8H2-F3 anti-CD3 antibody (antibody, V domains shown)
VH: QIQLVQSGPELKKPGESVKISCKASGYTFTDFAMNWVKQAPGNGLKWMGWINTQTGKPTYADGFKQRFVFSLETSASTIYLQINNLNIEDTATYFCTRGALASVGQGVMVTVSS
VL: DVVMTQTPVSLSVAIGQPASISCKSSQSLVGTSGKTYLNWLLQRPGQSPKRLIYLVSKLDSGIPDRFSGSGSETDFTLKISRVETDDLGVYYCLQGSHFPLTFGSGTKLEIK
B20: humanized 4B4 Fab 4B4_1 (VL1a / VH1B) (Fab, V domains shown)
VH: QVQLVETGGGLVKPGQSLKLTCATSGFTFSNAWMHWVRQSPEKGLEWVAQIKARSNNYATYYAVSVKGRFTISRDDSKSTIYLQMNSLTPEDTAIYYCRGTYYASKPFDYWGQGVMVTVSS
VL: DVVMTQTPVSLSVSVGGRVSISCRSSQSLVHDNGNTYLSWSLQKPGKSPKVLIYKVSNRFSGVSSRFTGSGSGTDFTLKISSVQPDDLGVYYCGQGTQYPFTFGSGTKLEIK
B21: humanized 4B4 Fab 4B4_2 (VL1b / VH1B) (Fab, V domains shown)
VH: QVQLVETGGGLVKPGQSLKLTCATSGFTFSNAWMHWVRQSPEKGLEWVAQIKARSNNYATYYAVSVKGRFTISRDDSKSTIYLQMNSLTPEDTAIYYCRGTYYASKPFDYWGQGVMVTVSS
VL: DVVMTQTPVSLSVSVGGRVSISCRSSQSLVHDNANTYLSWSLQKPGKSPKVLIYKVSNRFSGVSSRFTGSGSGTDFTLKISSVQPDDLGVYYCGQGTQYPFTFGSGTKLEIK

target: Macaca fascicularis CD3ε/δ-Fc fusion heterodimer (Macaca fascicularis) (UniProt Q95LI8); assay: SPR single point, hybridoma supernatant
Sequence (chain, as listed by the source mutant, chain 1 of 2): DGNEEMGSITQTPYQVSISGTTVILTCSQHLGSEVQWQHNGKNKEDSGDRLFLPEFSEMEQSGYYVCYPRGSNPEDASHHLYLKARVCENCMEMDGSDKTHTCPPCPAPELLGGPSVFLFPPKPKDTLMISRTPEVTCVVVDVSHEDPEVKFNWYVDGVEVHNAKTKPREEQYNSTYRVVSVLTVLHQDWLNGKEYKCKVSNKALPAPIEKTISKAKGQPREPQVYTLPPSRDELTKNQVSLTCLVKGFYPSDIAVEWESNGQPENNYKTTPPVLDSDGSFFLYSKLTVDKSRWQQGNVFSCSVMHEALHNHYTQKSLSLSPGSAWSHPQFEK
Sequence (Q95LI8 22-105, stated change not applied, chain 2 of 2): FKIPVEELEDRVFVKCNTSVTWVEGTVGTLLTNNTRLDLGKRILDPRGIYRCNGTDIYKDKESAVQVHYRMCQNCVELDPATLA

**Q.** For B1, which RU at 25 nM is on record?
**A.** Its RU at 25 nM is 16 RU.

**Q.** How did the RU at 25 nM turn out when B2 was run?
**A.** Its RU at 25 nM is 14 RU.

**Q.** How did the RU at 25 nM turn out when B3 was run?
**A.** The RU at 25 nM was 17 RU.

**Q.** With B4 as the binder, how does the RU at 25 nM read?
**A.** The RU at 25 nM was 10 RU.

**Q.** With B5 as the binder, how does the RU at 25 nM read?
**A.** The RU at 25 nM was 15.5 RU.

**Q.** B6 was tested. Which RU at 25 nM did it give?
**A.** The RU at 25 nM was 27 RU.

**Q.** With B7 as the binder, how does the RU at 25 nM read?
**A.** The RU at 25 nM was 8 RU.

**Q.** How did the RU at 25 nM turn out when B8 was run?
**A.** Its RU at 25 nM is 0.5 RU.

**Q.** Which RU at 25 nM does the source give for B9 here?
**A.** Its RU at 25 nM is 10 RU.

**Q.** Which RU at 25 nM does the source give for B10 here?
**A.** The RU at 25 nM was 17 RU.

**Q.** Which RU at 25 nM does the source give for B11 here?
**A.** Its RU at 25 nM is 22.5 RU.

**Q.** Which RU at 25 nM does the source give for B12 here?
**A.** Its RU at 25 nM is 0 RU.

**Q.** For B13, which RU at 25 nM is on record?
**A.** Its RU at 25 nM is -7 RU.

**Q.** Which RU at 25 nM does the source give for B14 here?
**A.** Its RU at 25 nM is 7 RU.

**Q.** For B15, which RU at 25 nM is on record?
**A.** The RU at 25 nM was 5 RU.

**Q.** B16 was tested. Which RU at 25 nM did it give?
**A.** The RU at 25 nM was 32 RU.

**Q.** With B17 as the binder, how does the RU at 25 nM read?
**A.** The RU at 25 nM was 55 RU.

**Q.** With B18 as the binder, how does the RU at 25 nM read?
**A.** The RU at 25 nM was 7 RU.

**Q.** How did the RU at 25 nM turn out when B19 was run?
**A.** The RU at 25 nM was 40 RU.

target: Macaca fascicularis CD3ε/δ-Fc fusion heterodimer (Macaca fascicularis) (UniProt Q95LI8); assay: SPR Biacore, Fab; unit inferred

**Q.** B20 was tested. Which Kd did it give?
**A.** Its Kd is 3.13 nM.

**Q.** Which Kd does the source give for B21 here?
**A.** Its Kd is 7.57 nM.
